How the values were obtained:
[1] = biological target: T1, ADAM33 (Homo sapiens, UniProt Q9BZ11); assay: HPLC inhibition assay, ADAM33cat with KL-1 peptide substrate; format: biochemical; settings: for Ki: ADAM33cat 80 nM, KL-1 peptide 100 μM, 2 h RT
T1 construct: made in house; host or cells: Drosophila melanogaster S2 cells
T1 sequence (Q9BZ11 204-409 limits assumed): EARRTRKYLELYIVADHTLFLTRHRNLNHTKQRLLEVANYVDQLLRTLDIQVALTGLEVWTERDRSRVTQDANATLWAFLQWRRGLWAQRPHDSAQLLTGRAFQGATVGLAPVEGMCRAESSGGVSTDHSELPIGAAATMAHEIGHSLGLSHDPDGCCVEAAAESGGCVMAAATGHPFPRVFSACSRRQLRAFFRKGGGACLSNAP
Description: The inhibition dissociation constants (Ki) for inhibitors were determined as follows: an HPLC assay was performed in the presence or absence of inhibitors for 2 h at RT using ADAM33cat (80 nM) and KL-1 peptide substrate (100 μM). For testing tissue inhibitor of metalloproteinases (TIMPs), ADAM33 and human TIMPs were pre-incubated for 1 h at RT. […] Initial velocities were calculated by dividing cleaved product over reaction time. The initial velocities were plotted as a function of inhibitor concentration. For tight binding inhibitors (IK682, TIMP-3), the apparent inhibitor dissociation constants (Ki app values) were calculated by fitting the curve to the following modified Morrison's equation: vi=vo{[(Eo−Io−Ki^app)^2+4 Ki^appEo]^1/2+(Eo−IoKI^app)}/2Eo where Ki^app=Ki(1+S/Km), vo is the uninhibited initial velocity, vi is the initial velocity in the presence of inhibitor at any given inhibitor concentration Io, and Eo is initial enzyme concentration. When the substrate concentration S<<Km, Ki^app is approximately equal to Ki.

[2] = biological target: human ADAM17 (Homo sapiens, UniProt P78536); assay: Inhibition of human ADAM17 by human TIMPs, fluorogenic pro-TNF-alpha substrate; format: biochemical; settings: ADAM17 1 nM, substrate 25 μM
Sequence of human ADAM17 (P78536 215-824): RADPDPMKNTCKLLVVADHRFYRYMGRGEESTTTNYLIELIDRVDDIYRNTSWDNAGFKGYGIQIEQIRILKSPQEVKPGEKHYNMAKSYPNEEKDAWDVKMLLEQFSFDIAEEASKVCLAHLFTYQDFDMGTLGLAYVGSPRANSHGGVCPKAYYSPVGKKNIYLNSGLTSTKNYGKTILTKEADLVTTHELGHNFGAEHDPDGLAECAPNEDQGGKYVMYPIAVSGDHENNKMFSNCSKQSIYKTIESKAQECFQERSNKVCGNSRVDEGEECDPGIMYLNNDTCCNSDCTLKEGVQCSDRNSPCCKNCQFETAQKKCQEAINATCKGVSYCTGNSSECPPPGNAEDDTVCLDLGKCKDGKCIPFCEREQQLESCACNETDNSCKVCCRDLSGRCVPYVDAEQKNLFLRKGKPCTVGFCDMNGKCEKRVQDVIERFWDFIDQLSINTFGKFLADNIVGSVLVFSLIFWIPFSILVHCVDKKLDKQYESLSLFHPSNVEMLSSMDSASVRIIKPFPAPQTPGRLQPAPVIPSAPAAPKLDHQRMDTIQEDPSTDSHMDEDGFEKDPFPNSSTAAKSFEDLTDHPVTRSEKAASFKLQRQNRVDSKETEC
Description: Inhibition of human ADAM17 by human TIMPs was determined as follows: ADAM17 (1 nM) was pre-incubated with serial dilutions of TIMP-1 (0–4 μM), TIMP-2 (0–1 μM), TIMP-3 (0–0.2 μM), or TIMP-4 (0–4 μM), in assay buffer (25 mM HEPES, pH7.5, 5 mM CaCl2, 0.1 mM ZnCl2) for 1 h at RT, followed by addition of the fluorogenic pro-TNF-alpha substrate (25 μM), K(mca)SPLAQAVRSSSRK(dnp) (SEQ ID NO: 46). The reaction velocities were measured using the GEMINI fluorescence reader at 320/380 nm for 1 h and inhibition dissociation constants were calculated by fitting the data to Morrison equation (TIMP-2 and TIMP-3) or Michaelis-Menten equation (TIMP-1 and TIMP-4) as described above.

[3] = substrate: CC(C)C[C@H](NC(=O)[C@H](CCCCN)NC(=O)[C@H](CCC(N)=O)NC(=O)[C@H](Cc1c[nH]cn1)NC(=O)[C@H](Cc1c[nH]cn1)NC(=O)[C@@H](NC(=O)[C@H](CCC(=O)O)NC(=O)[C@@H](N)Cc1ccc(O)cc1)C(C)C)C(=O)N[C@H](C(=O)N[C@@H](Cc1ccccc1)C(=O)O)C(C)C; assay: HPLC peptide substrate cleavage assay with ADAM33; format: biochemical, human; settings: other: ADAM33cat 80 nM, turnover <15%; pH 7.5
Description: (§1) The peptide substrate (50 μM) was incubated with or without ADAM33 (0.1–0.5 μM) in assay buffer (20 mM HEPES, pH 7.5, 0.5 M NaCl, 0.2 mg/ml bovine serum albumin (BSA)) for 2 hours (h) at room temperature (RT) in the presence or absence of various inhibitors [5 mM 1, 10-phenanthroline, or a protease inhibitor cocktail (2 μg/ml leupeptin, 0.4 μM benzamidine, 10 μg/ml soybean trypsin inhibitor and 0.5 mM iodoacetamide)]. The reaction was stopped by adding 10% trifluoroacetic acid (TFA) to a final concentration of 1% and samples were analyzed on Agilent HPLC model 1100 with C8 column. Solvents were: A, 0.1% TFA in water; B, 0.09% TFA in acetonitrile. A linear gradient from 2 to 42% B was run over 7 min at 1.5 ml/min and the eluate was monitored at 214 nm. The percentage of peptide cleavage was calculated using the peak area of the cleaved products divided by the sum of the peak areas of both the products and the remaining substrate. The cleavage sites of the peptide were identified by matrix-assisted laser-desorption/ionization time-of-flight (MALDI-TOF) mass spectrometry.
(§2) Specificity constants of peptide substrates, APP and KL-1, were obtained by using the HPLC assay described above. In brief, ADAM33cat (80 nM) was incubated with peptide substrate (30–2000 μM) in assay buffer for 10–60 min at RT. Reactions were timed to allow less than 15% turnover of the substrate. The initial cleavage velocities of the peptides were obtained by plotting cleaved product versus reaction time. The specificity constants, kcat/Km, were determined based on best fit of the data with the Michaelis-Menten equation when substrate concentration S<<Km.

[4] = substrate: CC(C)C[C@H](NC(=O)[C@H](CO)NC(=O)[C@H](CO)NC(=O)[C@H](C)NC(=O)[C@H](C)NC(=O)[C@@H](NC(=O)[C@@H]1CCCN1C(=O)[C@@H]1CCCN1)C(C)C)C(=O)N[C@@H](CCCNC(=N)N)C(=O)N[C@@H](CC(N)=O)C(=O)O; assay: HPLC peptide substrate cleavage assay with ADAM33; format: biochemical, human; settings: other: ADAM33cat 80 nM, turnover <15%; pH 7.5
Description: as §1, §2

[5] = system: ADAM33; assay: MCF 12-mer peptide proteolysis assay (HPLC); format: biochemical, human; settings: MCF peptide substrate
Description: A 12-mer peptide (i.e. Ac-LPPVAASSLNRD-NH2; SEQ ID NO: 48), derived from human mast-cell growth factor (accession number NP-038626) was synthesized as a substrate for ADAM33. Reactions were initiated by addition of 200 nM enzyme to appropriate amounts of substrate in assay buffer (25 mM HEPES, pH 7.5, 0.5 M NaCl, 0.1% n-octyl-β-D-glucoside), incubated at 22° C. for 2 h and subsequently quenched with 1% TFA. When inhibitors were evaluated, the enzyme and inhibitors were preincubated at 22° C. for 30 min prior to initiation of the assays. Substrate and products were separated by HPLC using a C-8 reverse phase column (Zobrax 3.5 μm, 4.6 mmD/5 cmL, Agilent, Palo Alto, Calif., 0.1% TFA acetonitrile/H2O). Elution was monitored at 214 nm, and peaks identified by mass spectroscopy. Initial rates of proteolysis were determined using reactions in which less than 10% of the substrate was consumed. kcat/Km values were calculated assuming the enzymes were 100% active.
Production of ADAM33 and mutants thereof were produced essentially as described in Example 1. Proteolytic assays and methods for determining catalytic rates are essentially as described in Examples 2 and 3.

“TIMP-1: human tissue inhibitor of metalloproteinases 1, endogenous inhibitor of MMPs and ADAMs” was tested, and the “inhibition of ADAM33 activity” value ([1]; at 2 µM) was “no inhibition” and the “inhibition of human ADAM17 activity” value [2] was “weakly inhibited”.

`CC(C)CC(CC(=O)NO)C(=O)N[C@H](C(=O)N[C@@H](C)C(=O)NCCN)C(C)(C)C` (mixture of isomers) [Immunex compound 1, N-{DL-[2-(hydroxyamino-carbonyl)methyl]4-methylpentanoyl}-L-3-(tertbutyl)glycyl-L-alanine,2-aminoethylamide] gave a Ki [1] of 2850 ± 152 nM.

For `CNC(=O)[C@@H](NC(=O)[C@H](CC(C)C)[C@H](O)C(=O)NO)C(C)(C)C` [Marimastat, N4-[2,2-dimethyl-1(S)-[(methylamino)carbonyl]propyl]-N1,2(S)-dihydroxy-3(R)-(2-methylpropyl) butanediamide], the Ki [1] was 157 ± 38 nM.

B1: ADAM33 (Homo sapiens) (protein)
chain: T1 sequence (Q9BZ11 204-409 limits assumed)
notes: made in house; host or cells: Drosophila melanogaster S2 cells
B1 was tested, and the Km [3] was 1.0 ± 0.1 mM, the kcat [3] was 0.2 ± 0.1 s⁻¹ and the kcat/Km [3] was “(1.6±0.3)×10^2 M^−1 s^−1”. The Km [4] was 3.0 ± 0.1 mM, the kcat [4] was 0.7 ± 0.1 s⁻¹ and the kcat/Km [4] was “(2.6±0.5)×10^2 M^−1 s^−1”.

B2: TIMP4: human tissue inhibitor of metalloproteinases 4, endogenous inhibitor of MMPs and ADAMs (protein)
chain: CSCAPAHPQQHICHSALVIRAKISSEKVVPASADPADTEKMLRYEIKQIKMFKGFEKVKDVQYIYTPFDSSLCGVKLEANSQKQYLLTGQVLSDGKVFIHLCNYIEPWEDLSLVQRESLNHHYHLNCGCQITTCYTVPCTISAPNECLWTDWLLERKLYGYQAQHYVCMKHVDGTCSWYRGHLPLRKEFVDIVQP
In the case of B2, the “inhibition of human ADAM17 activity” value [2] is reported as “inhibited”.

B3: pro-CAT single chain zymogen form: single chain zymogen form of ADAM33 (R203T/R207S; SEQ ID NO:54) (protein)
chain: LQGHIPGQPVTPHWVLDGQPWRTVSLEEPVSKPDMGLVALEAEGQELLLELEKNHRLLAPGYIETHYGPDGQPVVLAPNHTDHCHYQGRVRGFPDSWVVLCTCSGMSGLITLSRNASYYLRPWPPRGSKDFSTHEIFRMEQLLTWKGTCGHRDPGNKAGMTSLPGGPQSRGRTEARSTRKYLELYIVADHTLFLTRHRNLNHTKQRLLEVANYVDQLLRTLDIQVALTGLEVWTERDRSRVTQDANATLWAFLQWRRGLWAQRPHDSAQLLTGRAFQGATVGLAPVEGMCRAESSGGVSTDHSELPIGAAATMAHEIGHSLGLSHDPDGCCVEAAAESGGCVMAAATGHPFPRVFSACSRRQLRAFFRKGGGACLSNAP
modifications: homo sapiens
With B3 the “catalytic efficiency relative to CAT domain” value [5] was “no significant difference”.

B4: TIMP-3: human tissue inhibitor of metalloproteinases 3, endogenous inhibitor of MMPs and ADAMs (protein)
chain: CTCSPSHPQDAFCNSDIVIRAKVVGKKLVKEGPFGTLVYTIKQMKMYRGFTKMPHVQYIHTEASESLCGLKLEVNKYQYLLTGRVYDGKMYTGLCNFVERWDQLTLSQRKGLNYRYHLGCNCKIKSCYYLPCFVTSKNECLWTDMLSNFGYPGYQSKHYACIRQKGGYCSWYRGWAPPDKSIINATDP
With B4 the “inhibition of human ADAM17 activity” value [2] was “inhibited”.

From patent US7208311B2, “Catalytic domain of ADAM33 and methods of use thereof” (Schering Corporation, priority 2002, dated 2007)
